Results taken from publication PMC2878758.

substrate: Nc1ncnc2c1ncn2[C@@H]1O[C@H](COP(=O)(O)OP(=O)(O)OP(=O)(O)O)[C@@H](O)[C@H]1O; assay: ATPase assay, free ADP versus time, initial velocities; type: biochemical, Saccharomyces cerevisiae; conditions: 37 °C, saturating aI5β intron RNA transcript

Protein	Km [µM]	kcat
Mss116p (Saccharomyces cerevisiae S288C) (protein) NHITWAVSRRLYNDGNRDQRNFGRNQRNNNSNRYRNSRFNSRPRTRSREDDDEVHFDKTTFSKLIHVPKEDNSKEVTLDSLLEEGVLDKEIHKAITRMEFPGLTPVQQKTIKPILSSEDHDVIARAKTGTGKTFAFLIPIFQHLINTKFDSQYMVKAVIVAPTRDLALQIEAEVKKIHDMNYGLKKYACVSLVGGTDFRAAMNKMNKLRPNIVIATPGRLIDVLEKYSNKFFRFVDYKVLDEADRLLEIGFRDDLETISGILNEKNSKSADNIKTLLFSATLDDKVQKLANNIMNKKECLFLDTVDKNEPEAHERIDQSVVISEKFANSIFAAVEHIKKQIKERDSNYKAIIFAPTVKFTSFLCSILKNEFKKDLPILEFHGKITQNKRTSLVKRFKKDESGILVCTDVGARGMDFPNVHEVLQIGVPSELANYIHRIGRTARSGKEGSSVLFICKDELPFVRELEDAKNIVIAKQEKYEPSEEIKSEVLEAVTEEPEDISDIVISLISSYRSCIKEYRFSERRILPEIASTYGVLLNDPQLKIPVSRRFLDKLGLSRSPIGKAMFEIRDYSSRDGNNKSYDYDDDSEISFRGNKNYNNRSQNRDYDDEPFRRSNNNRRSFSRSNDKNNYSSRNSNIY	167 ± 20	0.496 ± 0.0603 s⁻¹
Mss116p (Saccharomyces cerevisiae S288C; R245E) (protein) NHITWAVSRRLYNDGNRDQRNFGRNQRNNNSNRYRNSRFNSRPRTRSREDDDEVHFDKTTFSKLIHVPKEDNSKEVTLDSLLEEGVLDKEIHKAITRMEFPGLTPVQQKTIKPILSSEDHDVIARAKTGTGKTFAFLIPIFQHLINTKFDSQYMVKAVIVAPTRDLALQIEAEVKKIHDMNYGLKKYACVSLVGGTDFRAAMNKMNKLRPNIVIATPGELIDVLEKYSNKFFRFVDYKVLDEADRLLEIGFRDDLETISGILNEKNSKSADNIKTLLFSATLDDKVQKLANNIMNKKECLFLDTVDKNEPEAHERIDQSVVISEKFANSIFAAVEHIKKQIKERDSNYKAIIFAPTVKFTSFLCSILKNEFKKDLPILEFHGKITQNKRTSLVKRFKKDESGILVCTDVGARGMDFPNVHEVLQIGVPSELANYIHRIGRTARSGKEGSSVLFICKDELPFVRELEDAKNIVIAKQEKYEPSEEIKSEVLEAVTEEPEDISDIVISLISSYRSCIKEYRFSERRILPEIASTYGVLLNDPQLKIPVSRRFLDKLGLSRSPIGKAMFEIRDYSSRDGNNKSYDYDDDSEISFRGNKNYNNRSQNRDYDDEPFRRSNNNRRSFSRSNDKNNYSSRNSNIY	554 ± 153	8.18 ± 0.08 ^e^, ^f
Mss116p (Saccharomyces cerevisiae S288C; S305A) (protein) NHITWAVSRRLYNDGNRDQRNFGRNQRNNNSNRYRNSRFNSRPRTRSREDDDEVHFDKTTFSKLIHVPKEDNSKEVTLDSLLEEGVLDKEIHKAITRMEFPGLTPVQQKTIKPILSSEDHDVIARAKTGTGKTFAFLIPIFQHLINTKFDSQYMVKAVIVAPTRDLALQIEAEVKKIHDMNYGLKKYACVSLVGGTDFRAAMNKMNKLRPNIVIATPGRLIDVLEKYSNKFFRFVDYKVLDEADRLLEIGFRDDLETISGILNEKNSKSADNIKTLLFAATLDDKVQKLANNIMNKKECLFLDTVDKNEPEAHERIDQSVVISEKFANSIFAAVEHIKKQIKERDSNYKAIIFAPTVKFTSFLCSILKNEFKKDLPILEFHGKITQNKRTSLVKRFKKDESGILVCTDVGARGMDFPNVHEVLQIGVPSELANYIHRIGRTARSGKEGSSVLFICKDELPFVRELEDAKNIVIAKQEKYEPSEEIKSEVLEAVTEEPEDISDIVISLISSYRSCIKEYRFSERRILPEIASTYGVLLNDPQLKIPVSRRFLDKLGLSRSPIGKAMFEIRDYSSRDGNNKSYDYDDDSEISFRGNKNYNNRSQNRDYDDEPFRRSNNNRRSFSRSNDKNNYSSRNSNIY	162 ± 16	0.322 ± 0.142 s⁻¹
Mss116p (Saccharomyces cerevisiae S288C; T307A) (protein) NHITWAVSRRLYNDGNRDQRNFGRNQRNNNSNRYRNSRFNSRPRTRSREDDDEVHFDKTTFSKLIHVPKEDNSKEVTLDSLLEEGVLDKEIHKAITRMEFPGLTPVQQKTIKPILSSEDHDVIARAKTGTGKTFAFLIPIFQHLINTKFDSQYMVKAVIVAPTRDLALQIEAEVKKIHDMNYGLKKYACVSLVGGTDFRAAMNKMNKLRPNIVIATPGRLIDVLEKYSNKFFRFVDYKVLDEADRLLEIGFRDDLETISGILNEKNSKSADNIKTLLFSAALDDKVQKLANNIMNKKECLFLDTVDKNEPEAHERIDQSVVISEKFANSIFAAVEHIKKQIKERDSNYKAIIFAPTVKFTSFLCSILKNEFKKDLPILEFHGKITQNKRTSLVKRFKKDESGILVCTDVGARGMDFPNVHEVLQIGVPSELANYIHRIGRTARSGKEGSSVLFICKDELPFVRELEDAKNIVIAKQEKYEPSEEIKSEVLEAVTEEPEDISDIVISLISSYRSCIKEYRFSERRILPEIASTYGVLLNDPQLKIPVSRRFLDKLGLSRSPIGKAMFEIRDYSSRDGNNKSYDYDDDSEISFRGNKNYNNRSQNRDYDDEPFRRSNNNRRSFSRSNDKNNYSSRNSNIY	180 ± 4	0.061 ± 0.0045 s⁻¹
Mss116p (Saccharomyces cerevisiae S288C; Q412A) (protein) NHITWAVSRRLYNDGNRDQRNFGRNQRNNNSNRYRNSRFNSRPRTRSREDDDEVHFDKTTFSKLIHVPKEDNSKEVTLDSLLEEGVLDKEIHKAITRMEFPGLTPVQQKTIKPILSSEDHDVIARAKTGTGKTFAFLIPIFQHLINTKFDSQYMVKAVIVAPTRDLALQIEAEVKKIHDMNYGLKKYACVSLVGGTDFRAAMNKMNKLRPNIVIATPGRLIDVLEKYSNKFFRFVDYKVLDEADRLLEIGFRDDLETISGILNEKNSKSADNIKTLLFSATLDDKVQKLANNIMNKKECLFLDTVDKNEPEAHERIDQSVVISEKFANSIFAAVEHIKKQIKERDSNYKAIIFAPTVKFTSFLCSILKNEFKKDLPILEFHGKITANKRTSLVKRFKKDESGILVCTDVGARGMDFPNVHEVLQIGVPSELANYIHRIGRTARSGKEGSSVLFICKDELPFVRELEDAKNIVIAKQEKYEPSEEIKSEVLEAVTEEPEDISDIVISLISSYRSCIKEYRFSERRILPEIASTYGVLLNDPQLKIPVSRRFLDKLGLSRSPIGKAMFEIRDYSSRDGNNKSYDYDDDSEISFRGNKNYNNRSQNRDYDDEPFRRSNNNRRSFSRSNDKNNYSSRNSNIY	177 ± 33	0.393 ± 0.0933 s⁻¹
